This is an account of results in paper doi:10.1101/2021.02.27.433189.

Changes are numbered by the printed parent chain.

The labels stand for the following.
B1: ncAA-tagged TARP γ2 S44* with eGFP in the C-tail (natural protein)
chain: MGLFDRGVQMLLTTVGAFAAFSLMTIAVGTDYWLYSRGVCKTKKVSENETSKKNEEVMTHSGLWRTCCLEGNFKGLCKQIDHFPEDADYEADTAEYFLRAVRASSIFPILSVILLFMGGLCIAASEFYKTRHNIILSAGIFFVSAGLSNIIGIIVYISANAGDPSKSDSKKNSYSYGWSFYFGALSFIIAEMVGVLAVHMFIDRHKQLRATARATDYLQASAITRIPSYRYRYQRRSRSSSRSTEPSHSRDASPVGVKGFNTLPSTEISMYTLSRDPLKAATTPTATYNSDRDNSFLQVHNCIQKDSKDSLHANTANRRTTPV
modifications: TCO*A (trans-cyclooct-2-en-L-lysine) at position 44
B2: TARP γ2 with eGFP in the C-tail (natural protein)
chain: B1 chain with K44S
B3: TARP γ8 with eGFP in the C-tail (natural protein)
chain: MESLKRWNEERGLWCEKGVQVLLTTIGAFAAFGLMTIAISTDYWLYTRALICNTTNLTAGDDGPPHRGGSGSSEKKDPGGLTHSGLWRICCLEGLKRGVCVKINHFPEDTDYDHDSAEYLLRVVRASSIFPILSAILLLLGGVCVAASRVYKSKRNIILGAGILFVAAGLSNIIGVIVYISANAGEPGPKRDEEKKNHYSYGWSFYFGGLSFILAEVIGVLAVNIYIERSREAHCQSRSDLLKAGGGAGGSGGSGPSAILRLPSYRFRYRRRSRSSSRGSSEASPSRDASPGGPGGPGFASTDISMYTLSRDPSKGSVAAGLASAGGGGGGAGVGAYGGAAGAAGGGGTGSERDRGSSAGFLTLHNAFPKEAASGVTVTVTGPPAAPAPAPPAPAAPAPGTLSKEAAASNTNTLNRKTTPV
B4: ncAA-tagged TARP γ8 S72* with eGFP in the C-tail (natural protein)
chain: B3 chain with S72K
modifications: TCO*A (trans-cyclooct-2-en-L-lysine) at position 72

The assay concerns the target AMPAR subunit GluA1, flip isoform (UniProt P19490).
Take B1: the receptor recovery from desensitization, τrec (GluA1 alone 162.6 ms) was determined as 62.3 ms. The value for B2 was 57.1 ms; that for B3 was 40.9 ms; that for B4 was 45.8 ms.
